In patent US20170096492A1, “DOSAGE AND ADMINISTRATION OF ANTI-IGF-1R, ANTI-ErbB3 BISPECIFIC ANTIBODIES, USES THEREOF AND METHODS OF TREATMENT [sequence]” (Merrimack Pharmaceuticals, Inc., priority 2014, published 2017) one finds Half-lives data, which are given here for one substance.

The nature of the data set: Phase 1 PK analysis of serum MM-141 (ELISA, non-compartmental). It counts as in vivo, human. As to conditions: range. How it is done:
Serum for PK and PD analysis was prepared by drawing whole blood into red top tubes, clotting 30 minutes at 4-8° C. and spinning down in a refrigerated centrifuge. Serum was aliquotted and frozen immediately after centrifugation. PD analysis of total IGF-1 in serum was performed using Human IGF-I Quantikine® ELISA Kit (R&D Systems, Minneapolis, Minn.) according to the manufacturer's instructions. For the PK analysis, in brief, ELISA plates were plates were coated with IGF-1R (R&D Systems) in PBS and incubated overnight at 4° C. Plates were washed, blocked, and then samples and standards were added to plates and incubated for 2 hr at room temperature. Plates were washed and ErbB3-His was added for 1 hr at room temperature. Plates were washed and anti-His-HRP (Abeam, Cambridge, Mass.) was added for 1 hr at room temperature. Plates were developed using TMB and STOP solution and absorbance was read at 450 nm. PK parameters were analyzed using descriptive statistics including the median, mean and 95% confidence intervals around parameter estimates by dose level. All PK parameters included Cmax, Tmax, AUC (area under the concentration curve), clearance, volume of distribution at steady state (Vdss), and the terminal elimination half-life. Estimation of the PK parameters was performed using standard non-compartmental methods.

Regarding “MM-141: polyvalent bispecific antibody P4-G1-M1.3, anti-IGF-1R and anti-ErbB3; heavy chain SEQ ID NO: 3, light chain SEQ ID NO: 4”, the Half-lives lay in the range of 2.4 to 6.3 days (6 mg/kg q7d), 2.1 to 2.9 days (12 mg/kg q7d), 3.3 to 3.4 days (20 mg/kg q7d) and 3.2 to 9.9 days (40 mg/kg q14d).
